Results from US8936925B2, “Reconstitution of 5-enolpyruvylshikimate-3-phosphate synthase activity by fragment complementation” (priority 2004, dated 2015).

System: aroA gene-mutant E. coli strain AB2829
Experiment: In vivo complementation: growth on solid M63 restrictive medium
Format: cell-based
Design: key: −: failed to grow; +: able to grow
Conditions: C-terminal fragment alone
Text: The pKU2100 plasmid constructed as described above and corresponding pACYC1184 plasmid were introduced separately or together into the strain AB2829 deficient in E. coli aroA gene. Then, the strain was streaked on solid M63 restrictive medium and cultured overnight to determine the growth.
In order to test if EPSPS achieves fragment complementation after in vivo expression, genes encoding EPSPS N-terminal peptides were constructed into pACYC184, and genes encoding EPSPS C-terminal peptides were constructed into pBR322 (see the section Materials and Methods for the detailed construction method). Afterwards, these plasmids were introduced into aroA gene-mutant E. coli strain AB2829. EPSPS activity of the protein fragments encoded by these genes was determined by the growth of the strains on M63 restrictive medium.
The pACYC184 and pBR322 plasmids are able to be expressed in the same bacterial cell since they have replicons p15A and ColE1 respectively. In this regard, a pACYC184 plasmid was co-introduced into aroA gene-mutant E. coli strain AB2829 together with a corresponding pKU2100 plasmid, wherein the N-terminal peptide encoded by the pACYC184 plasmid and C-terminal peptide encoded by the pKU2100 plasmid are the two fragments divided at the same site from EPSPS. The resulting strains are streaked on M63 restrictive medium, and cultured at 37° C.
The pBR322 plasmids constructed in section 3.5 a and their relevant pACYC1184 plasmids constructed in section 3.5 b were introduced respectively or together into E. coli strain AB2829 deficient in aroA gene. Then the strains were streaked on solid M63 restrictive medium and cultured overnight to test the growth.

Molecule | complementation condition, C-terminal
C260: E. coli EPSPS C-terminal fragment, residue 260 to C-terminus (protein, UniProt P0A6D3 260-427, looked up, fragment) VKVTGIGRNSMQGDIRFADVLEKMGATICWGDDYISCTRGELNAIDMDMNHIPDAAMTIATAALFAKGTTTLRNIYNWRVKETDRLFAMATELRKVGAEVEEGHDYIRITPPEKLNFAEIATYNDHRMAMCFSLVALSDTPVTILDPKCTAKTFPDYFEQLARISQAA | −
C299: E. coli EPSPS C-terminal fragment, residue 299 to C-terminus (protein, UniProt P0A6D3 299-427, looked up, fragment) GELNAIDMDMNHIPDAAMTIATAALFAKGTTTLRNIYNWRVKETDRLFAMATELRKVGAEVEEGHDYIRITPPEKLNFAEIATYNDHRMAMCFSLVALSDTPVTILDPKCTAKTFPDYFEQLARISQAA | −
C32: E. coli EPSPS C-terminal fragment, residue 32 to C-terminus (protein, UniProt P0A6D3 32-427, looked up, fragment) AALAHGKTVLTNLLDSDDVRHMLNALTALGVSYTLSADRTRCEIIGNGGPLHAEGALELFLGNAGTAMRPLAAALCLGSNDIVLTGEPRMKERPIGHLVDALRLGGAKITYLEQENYPPLRLQGGFTGGNVDVDGSVSSQFLTALLMTAPLAPEDTVIRIKGDLVSKPYIDITLNLMKTFGVEIENQHYQQFVVKGGQSYQSPGTYLVEGDASSASYFLAAAAIKGGTVKVTGIGRNSMQGDIRFADVLEKMGATICWGDDYISCTRGELNAIDMDMNHIPDAAMTIATAALFAKGTTTLRNIYNWRVKETDRLFAMATELRKVGAEVEEGHDYIRITPPEKLNFAEIATYNDHRMAMCFSLVALSDTPVTILDPKCTAKTFPDYFEQLARISQAA | −
C68: E. coli EPSPS C-terminal fragment, residue 68 to C-terminus (protein, UniProt P0A6D3 68-427, looked up, fragment) ADRTRCEIIGNGGPLHAEGALELFLGNAGTAMRPLAAALCLGSNDIVLTGEPRMKERPIGHLVDALRLGGAKITYLEQENYPPLRLQGGFTGGNVDVDGSVSSQFLTALLMTAPLAPEDTVIRIKGDLVSKPYIDITLNLMKTFGVEIENQHYQQFVVKGGQSYQSPGTYLVEGDASSASYFLAAAAIKGGTVKVTGIGRNSMQGDIRFADVLEKMGATICWGDDYISCTRGELNAIDMDMNHIPDAAMTIATAALFAKGTTTLRNIYNWRVKETDRLFAMATELRKVGAEVEEGHDYIRITPPEKLNFAEIATYNDHRMAMCFSLVALSDTPVTILDPKCTAKTFPDYFEQLARISQAA | −
C74: E. coli EPSPS C-terminal fragment, residue 74 to C-terminus (protein, UniProt P0A6D3 74-427, looked up, fragment) EIIGNGGPLHAEGALELFLGNAGTAMRPLAAALCLGSNDIVLTGEPRMKERPIGHLVDALRLGGAKITYLEQENYPPLRLQGGFTGGNVDVDGSVSSQFLTALLMTAPLAPEDTVIRIKGDLVSKPYIDITLNLMKTFGVEIENQHYQQFVVKGGQSYQSPGTYLVEGDASSASYFLAAAAIKGGTVKVTGIGRNSMQGDIRFADVLEKMGATICWGDDYISCTRGELNAIDMDMNHIPDAAMTIATAALFAKGTTTLRNIYNWRVKETDRLFAMATELRKVGAEVEEGHDYIRITPPEKLNFAEIATYNDHRMAMCFSLVALSDTPVTILDPKCTAKTFPDYFEQLARISQAA | −

Same assay, conditions: N-terminal fragment alone

Molecule | complementation condition, N-terminal
N298: E. coli EPSPS N-terminal fragment, N-terminus to residue 298 (protein, UniProt P0A6D3 1-298, looked up, fragment) MESLTLQPIARVDGTINLPGSKSVSNRALLLAALAHGKTVLTNLLDSDDVRHMLNALTALGVSYTLSADRTRCEIIGNGGPLHAEGALELFLGNAGTAMRPLAAALCLGSNDIVLTGEPRMKERPIGHLVDALRLGGAKITYLEQENYPPLRLQGGFTGGNVDVDGSVSSQFLTALLMTAPLAPEDTVIRIKGDLVSKPYIDITLNLMKTFGVEIENQHYQQFVVKGGQSYQSPGTYLVEGDASSASYFLAAAAIKGGTVKVTGIGRNSMQGDIRFADVLEKMGATICWGDDYISCTR | −
N371: E. coli EPSPS N-terminal fragment, N-terminus to residue 371 (protein, UniProt P0A6D3 1-371, looked up, fragment) MESLTLQPIARVDGTINLPGSKSVSNRALLLAALAHGKTVLTNLLDSDDVRHMLNALTALGVSYTLSADRTRCEIIGNGGPLHAEGALELFLGNAGTAMRPLAAALCLGSNDIVLTGEPRMKERPIGHLVDALRLGGAKITYLEQENYPPLRLQGGFTGGNVDVDGSVSSQFLTALLMTAPLAPEDTVIRIKGDLVSKPYIDITLNLMKTFGVEIENQHYQQFVVKGGQSYQSPGTYLVEGDASSASYFLAAAAIKGGTVKVTGIGRNSMQGDIRFADVLEKMGATICWGDDYISCTRGELNAIDMDMNHIPDAAMTIATAALFAKGTTTLRNIYNWRVKETDRLFAMATELRKVGAEVEEGHDYIRITPP | −
N376: E. coli EPSPS N-terminal fragment, N-terminus to residue 376 (protein, UniProt P0A6D3 1-376, looked up, fragment) MESLTLQPIARVDGTINLPGSKSVSNRALLLAALAHGKTVLTNLLDSDDVRHMLNALTALGVSYTLSADRTRCEIIGNGGPLHAEGALELFLGNAGTAMRPLAAALCLGSNDIVLTGEPRMKERPIGHLVDALRLGGAKITYLEQENYPPLRLQGGFTGGNVDVDGSVSSQFLTALLMTAPLAPEDTVIRIKGDLVSKPYIDITLNLMKTFGVEIENQHYQQFVVKGGQSYQSPGTYLVEGDASSASYFLAAAAIKGGTVKVTGIGRNSMQGDIRFADVLEKMGATICWGDDYISCTRGELNAIDMDMNHIPDAAMTIATAALFAKGTTTLRNIYNWRVKETDRLFAMATELRKVGAEVEEGHDYIRITPPEKLNF | −
N383: E. coli EPSPS N-terminal fragment, N-terminus to residue 383 (protein, UniProt P0A6D3 1-383, looked up, fragment) MESLTLQPIARVDGTINLPGSKSVSNRALLLAALAHGKTVLTNLLDSDDVRHMLNALTALGVSYTLSADRTRCEIIGNGGPLHAEGALELFLGNAGTAMRPLAAALCLGSNDIVLTGEPRMKERPIGHLVDALRLGGAKITYLEQENYPPLRLQGGFTGGNVDVDGSVSSQFLTALLMTAPLAPEDTVIRIKGDLVSKPYIDITLNLMKTFGVEIENQHYQQFVVKGGQSYQSPGTYLVEGDASSASYFLAAAAIKGGTVKVTGIGRNSMQGDIRFADVLEKMGATICWGDDYISCTRGELNAIDMDMNHIPDAAMTIATAALFAKGTTTLRNIYNWRVKETDRLFAMATELRKVGAEVEEGHDYIRITPPEKLNFAEIATYN | −
N67: E. coli EPSPS N-terminal fragment, N-terminus to residue 67 (protein, UniProt P0A6D3 1-67, looked up, fragment) MESLTLQPIARVDGTINLPGSKSVSNRALLLAALAHGKTVLTNLLDSDDVRHMLNALTALGVSYTLS | −
N73: E. coli EPSPS N-terminal fragment, N-terminus to residue 73 (protein, UniProt P0A6D3 1-73, looked up, fragment) MESLTLQPIARVDGTINLPGSKSVSNRALLLAALAHGKTVLTNLLDSDDVRHMLNALTALGVSYTLSADRTRC | −

System: aroA-mutant E. coli strain AB2829
Experiment: Growth in M63 restrictive media with different concentrations of glyphosate
Format: cell-based
Conditions: 50 mM glyphosate
Description: aroA gene-mutant E. coli strains AB 2829 carrying plasmid pKU2004, pKU2006 or pKU2007 were inoculated in liquid LB medium and incubated overnight. A sample of the culture was centrifuged at 4000 rpm for 3 min and re-suspended in 0.9% physiological saline. After a further centrifugation, the supernatant was discarded. The pellets were re-suspended in physiological saline and inoculated at an initial concentration of OD600 0.04 into a liquid media comprising 0, 50 or 100 mM glyphosate for overnight culture at 37° C. Absorption (OD600) was measured at intervals.
In order to test whether the mutated EPSPS fragments perform functional complementation in vivo, plasmid pKU2105 and pKU2333 were constructed, which encode the N-terminal fragments N218-G96A and N227-G96A of E. coli EPSPS, respectively. They were introduced into aroA-mutant E. coli strain AB2829 (aroA−, from Yale University) together with their corresponding plasmids encoding C219 and C228 respectively. The growth was detected in the M63 restrictive media with different concentrations of glyphosate.

Molecule | growth in M63 medium containing 50 mM glyphosate
EPSPS-G96A (protein, UniProt P0A6D3 1-427, looked up, variant G96A) 3-phosphoshikimate …: MESLTLQPIARVDGTINLPGSKSVSNRALLLAALAHGKTVLTNLLDSDDVRHMLNALTALGVSYTLSADRTRCEIIGNGGPLHAEGALELFLGNAATAMRPLAAALCLGSNDIVLTGEPRMKERPIGHLVDALRLGGAKITYLEQENYPPLRLQGGFTGGNVDVDGSVSSQFLTALLMTAPLAPEDTVIRIKGDLVSKPYIDITLNLMKTFGVEIENQHYQQFVVKGGQSYQSPGTYLVEGDASSASYFLAAAAIKGGTVKVTGIGRNSMQGDIRFADVLEKMGATICWGDDYISCTRGELNAIDMDMNHIPDAAMTIATAALFAKGTTTLRNIYNWRVKETDRLFAMATELRKVGAEVEEGHDYIRITPPEKLNFAEIATYNDHRMAMCFSLVALSDTPVTILDPKCTAKTFPDYFEQLARISQAA | grew well

Same assay, conditions: 100 mM glyphosate

Molecule | growth in M63 medium containing 100 mM glyphosate
EPSPS-G96A (protein, UniProt P0A6D3 1-427, looked up, variant G96A) 3-phosphoshikimate …: MESLTLQPIARVDGTINLPGSKSVSNRALLLAALAHGKTVLTNLLDSDDVRHMLNALTALGVSYTLSADRTRCEIIGNGGPLHAEGALELFLGNAATAMRPLAAALCLGSNDIVLTGEPRMKERPIGHLVDALRLGGAKITYLEQENYPPLRLQGGFTGGNVDVDGSVSSQFLTALLMTAPLAPEDTVIRIKGDLVSKPYIDITLNLMKTFGVEIENQHYQQFVVKGGQSYQSPGTYLVEGDASSASYFLAAAAIKGGTVKVTGIGRNSMQGDIRFADVLEKMGATICWGDDYISCTRGELNAIDMDMNHIPDAAMTIATAALFAKGTTTLRNIYNWRVKETDRLFAMATELRKVGAEVEEGHDYIRITPPEKLNFAEIATYNDHRMAMCFSLVALSDTPVTILDPKCTAKTFPDYFEQLARISQAA | still grew well
